Source: patent US20250059559A1 (FLAGSHIP PIONEERING INNOVATIONS V, published 2025)

Assays:
[1] = target: the molecule itself; experiment: self-assembly; negative-stain EM
self-assembly; EM = target: the molecule itself; experiment: self-assembly; EM
[2] = target: the molecule itself; experiment: self-assembly; heparin and SEC purification, EM

Row | Protein | binding result [1] | also measured
1 | Ring 10 ORF1 fused to an N-terminal HIS6-tag (HIS-ORF1) (other, also called Ring 10 HIS-ORF1; not shown: N-terminal HIS6-tag) MPWWYRRRSYNPWRRRNWFRRPRKTIYRRYRRRRRWVRRKPFYKRKIKRLNIVEWQPKSIRKCRIKGMLCLFQTTEDRLSYNFDMYEESIIPEKLPGGGGFSIKNISLYALYQEHIHAHNIFTHTNTDRPLARYTGCSLKFYQSKDIDYVVTYSTSLPLRSSMGMYNSMQPSIHLMQQNKLIVPSKQTQKRRKPYIKKHISPPTQMKSQWYFQHNIANIPLLMIRTTALTLDNYYIGSRQLSTNVTIHTLNTTYIQNRDWGDRNKTYYCQTLGTQRYFLYGTHSTAQNINDIKLQELIPLTNTQDYVQGFDWTEKDKHNITTYKEFLTKGAGNPFHAEWITAQNPVIHTANSPTQIEQIYTASTTTFQNKKLTDLPTPGYIFITPTVSLRYNPYKDLAERNKCYFVRSKINAHGWDPEQHQELINSDLPQWLLLFGYPDYIKRTQNFALVDTNYILVDHCPYTNPEKTPFIPLSTSFIEGRSPYSPSDTHEPDEEDQNRWYPCYQYQQESINSICLSGPGTPKIPKGITAEAKVKYSFNFKWGGDLPPMSTITNPTDQPTYVVPNNFNETTSLQNPTTRPEHFLYSFDERRGQLTEKATKRLLKDWETKETSLLSTEYRFAEPTQTQAPQEDPSSEEEEESNLFERLLRQRTKQLQLKRRIIQTLKDLQKLE | binds | –
2 | full-length Ring 10 ORF1 (residues 1-672) (other, also called Ly1 ORF1; full-length ORF1) MPWWYRRRSYNPWRRRNWFRRPRKTIYRRYRRRRRWVRRKPFYKRKIKRLNIVEWQPKSIRKCRIKGMLCLFQTTEDRLSYNFDMYEESIIPEKLPGGGGFSIKNISLYALYQEHIHAHNIFTHTNTDRPLARYTGCSLKFYQSKDIDYVVTYSTSLPLRSSMGMYNSMQPSIHLMQQNKLIVPSKQTQKRRKPYIKKHISPPTQMKSQWYFQHNIANIPLLMIRTTALTLDNYYIGSRQLSTNVTIHTLNTTYIQNRDWGDRNKTYYCQTLGTQRYFLYGTHSTAQNINDIKLQELIPLTNTQDYVQGFDWTEKDKHNITTYKEFLTKGAGNPFHAEWITAQNPVIHTANSPTQIEQIYTASTTTFQNKKLTDLPTPGYIFITPTVSLRYNPYKDLAERNKCYFVRSKINAHGWDPEQHQELINSDLPQWLLLFGYPDYIKRTQNFALVDTNYILVDHCPYTNPEKTPFIPLSTSFIEGRSPYSPSDTHEPDEEDQNRWYPCYQYQQESINSICLSGPGTPKIPKGITAEAKVKYSFNFKWGGDLPPMSTITNPTDQPTYVVPNNFNETTSLQNPTTRPEHFLYSFDERRGQLTEKATKRLLKDWETKETSLLSTEYRFAEPTQTQAPQEDPSSEEEEESNLFERLLRQRTKQLQLKRRIIQTLKDLQKLE | binds | –
3 | Ring2 ORF1 with a deletion of the C-terminus amino acids 611-666 (pRTx-2652), Ring2 AnelloVLP (other, also called Ring2 delCterm (Δ611-666) (7047); Ring2 AnelloVLP 2652) MPYYYRRRRYNYRRPRWYGRGWIRRPFRRRFRRKRRVRPTYTTIPLKQWQPPYKRTCYIKGQDCLIYYSNLRLGMNSTMYEKSIVPVHWPGGGSFSVSMLTLDALYDIHKLCRNWWTSTNQDLPLVRYKGCKITFYQSTFTDYIVRIHTELPANSNKLTYPNTHPLMMMMSKYKHIIPSRQTRRKKKPYTKIFVKPPPQFENKWYFATDLYKIPLLQIHCTACNLQNPFVKPDKLSNNVTLWSLNTISIQNRNMSVDQGQSWPFKILGTQSFYFYFYTGANLPGDTTQIPVADLLPLTNPRINRPGQSLNEAKITDHITFTEYKNKFTNYWGNPFNKHIQEHLDMILYSLKSPEAIKNEWTTENMKWNQLNNAGTMALTPFNEPIFTQIQYNPDRDTGEDTQLYLLSNATGTGWDPPGIPELILEGFPLWLIYWGFADFQKNLKKVTNIDTNYMLVAKTKFTQKPGTFYLVILNDTFVEGNSPYEKQPLPEDNIKWYPQVQYQLEAQNKLLQTGPFTPNIQGQLSDNISMFYKFYFKWGGSPPKAINVENPAHQIQYPIPRNEHETTSLQSPGEAPESILYSFDYRHGNYTTTALSRISQDWALKDTVSK | – | binding result (self-assembly; EM): binds
4 | Ring 10 ORF1 delARM delCTD (residues 2-45 and 552-672 deleted) (other, also called Ring 10 delARM delCTD) MKIKRLNIVEWQPKSIRKCRIKGMLCLFQTTEDRLSYNFDMYEESIIPEKLPGGGGFSIKNISLYALYQEHIHAHNIFTHTNTDRPLARYTGCSLKFYQSKDIDYVVTYSTSLPLRSSMGMYNSMQPSIHLMQQNKLIVPSKQTQKRRKPYIKKHISPPTQMKSQWYFQHNIANIPLLMIRTTALTLDNYYIGSRQLSTNVTIHTLNTTYIQNRDWGDRNKTYYCQTLGTQRYFLYGTHSTAQNINDIKLQELIPLTNTQDYVQGFDWTEKDKHNITTYKEFLTKGAGNPFHAEWITAQNPVIHTANSPTQIEQIYTASTTTFQNKKLTDLPTPGYIFITPTVSLRYNPYKDLAERNKCYFVRSKINAHGWDPEQHQELINSDLPQWLLLFGYPDYIKRTQNFALVDTNYILVDHCPYTNPEKTPFIPLSTSFIEGRSPYSPSDTHEPDEEDQNRWYPCYQYQQESINSICLSGPGTPKIPKGITAEAKVKYSFNFKWGGDLPPMST | binds | –
5 | Ring 2 ORF1 fused to an N-terminal HIS6-tag (HIS-ORF1) (other, also called Ring 2 HIS-ORF1; not shown: N-terminal HIS6-tag) MPYYYRRRRYNYRRPRWYGRGWIRRPFRRRFRRKRRVRPTYTTIPLKQWQPPYKRTCYIKGQDCLIYYSNLRLGMNSTMYEKSIVPVHWPGGGSFSVSMLTLDALYDIHKLCRNWWTSTNQDLPLVRYKGCKITFYQSTFTDYIVRIHTELPANSNKLTYPNTHPLMMMMSKYKHIIPSRQTRRKKKPYTKIFVKPPPQFENKWYFATDLYKIPLLQIHCTACNLQNPFVKPDKLSNNVTLWSLNTISIQNRNMSVDQGQSWPFKILGTQSFYFYFYTGANLPGDTTQIPVADLLPLTNPRINRPGQSLNEAKITDHITFTEYKNKFTNYWGNPFNKHIQEHLDMILYSLKSPEAIKNEWTTENMKWNQLNNAGTMALTPFNEPIFTQIQYNPDRDTGEDTQLYLLSNATGTGWDPPGIPELILEGFPLWLIYWGFADFQKNLKKVTNIDTNYMLVAKTKFTQKPGTFYLVILNDTFVEGNSPYEKQPLPEDNIKWYPQVQYQLEAQNKLLQTGPFTPNIQGQLSDNISMFYKFYFKWGGSPPKAINVENPAHQIQYPIPRNEHETTSLQSPGEAPESILYSFDYRHGNYTTTALSRISQDWALKDTVSKITEPDRQQLLKQALECLQISEETQEKKEKEVQQLISNLRQQQQLYRERIISLLKDQ | binds | –
6 | untagged Ring2 ORF1 (other, also called LY2 ORF1) MPYYYRRRRYNYRRPRWYGRGWIRRPFRRRFRRKRRVRPTYTTIPLKQWQPPYKRTCYIKGQDCLIYYSNLRLGMNSTMYEKSIVPVHWPGGGSFSVSMLTLDALYDIHKLCRNWWTSTNQDLPLVRYKGCKITFYQSTFTDYIVRIHTELPANSNKLTYPNTHPLMMMMSKYKHIIPSRQTRRKKKPYTKIFVKPPPQFENKWYFATDLYKIPLLQIHCTACNLQNPFVKPDKLSNNVTLWSLNTISIQNRNMSVDQGQSWPFKILGTQSFYFYFYTGANLPGDTTQIPVADLLPLTNPRINRPGQSLNEAKITDHITFTEYKNKFTNYWGNPFNKHIQEHLDMILYSLKSPEAIKNEWTTENMKWNQLNNAGTMALTPFNEPIFTQIQYNPDRDTGEDTQLYLLSNATGTGWDPPGIPELILEGFPLWLIYWGFADFQKNLKKVTNIDTNYMLVAKTKFTQKPGTFYLVILNDTFVEGNSPYEKQPLPEDNIKWYPQVQYQLEAQNKLLQTGPFTPNIQGQLSDNISMFYKFYFKWGGSPPKAINVENPAHQIQYPIPRNEHETTSLQSPGEAPESILYSFDYRHGNYTTTALSRISQDWALKDTVSKITEPDRQQLLKQALECLQISEETQEKKEKEVQQLISNLRQQQQLYRERIISLLKDQ | – | binding result [2]: binds
